Assay results reported in paper PMC7999107.

Columns and labels:
Details in all cases: reference: wild type mice; sites S89
14-3-3 epsilon (14-3-3ε) [1] = target: 14-3-3 epsilon (14-3-3ε) (UniProt P62259); assay: anti-14-3-3ε IP, p300 immunoblot
β-catenin = β-catenin (UniProt Q02248); assay: anti-p300 IP, β-catenin immunoblot, nuclear extract
14-3-3 epsilon (14-3-3ε) [2] = target: 14-3-3 epsilon (14-3-3ε) (UniProt P62259); assay: anti-p300 IP, 14-3-3ε immunoblot

Measured: binding against the reference

p300 (from UniProt B2RWS6) p300 S89A knock-in mice
weaker: all assays above
